Stoichiometry N data for one substance are collected here from publication PMC6076278.

The target of test [1] is Glutamine synthetase from Helicobacter pylori (Helicobacter pylori) (UniProt P94845). Put plainly: crystal structure; apo Hpy GS; crystals in 10% (v/v) PEG 6,000, 100 mM HEPES pH 7.0, 50 mM choline; 2.8 Å; hexamer in the asymmetric unit, dodecamer generated by two-fold symmetry.
The target is the same in test [2]. Put plainly: crystal structure; Hpy GS mixed with 5 mM ATP, 5 mM PPT, 5 mM magnesium chloride; crystals in 2.0 M sodium formate, 100 mM sodium citrate pH 5.0; 2.9 Å; twelve subunits in the asymmetric unit.

Regarding “Glutamine synthetase from Helicobacter pylori (from UniProt P94845 1-481) (enzyme)”, the stoichiometry N in test [1] and in test [2] was 12 throughout.
